Data set [1] deals with the molecule itself. Description: crystal structure.
Data set [2] deals with the molecule itself. Description: crystal structure. This is another data set of the same source.

Like-named read-outs stand apart in the source and are kept apart here.

B1: VR3 (red abalone VERL repeat 3 without the interdomain linker) (domain or fragment)
chain: DWDVYCSQDESIPAKFISRLVTSKDQALEKTEINCSNGLVPITQEFGINMMLIQYTRNELLDSPGMCVFWGPYSVPKNDTVVLYTVTARLKWSEGPPTNLSIQCYMPKSPVAPK
For B1, the binding result in the data set “crystal structure [1]” is recorded as “binds”.

B2: mMBP-VR3 (mammalianized maltose-binding protein fusion of VERL repeat 3) (domain or fragment)
chain: B1 chain
As to B2, the binding result in “crystal structure [2]” is reported as “binds”.

Values taken from PMC5480393 (Cell, 2017).
